Ends that are not written are not given here. * marks the point of attachment. Biotin = O=C1N[C@H]2[C@H](CS[C@H]2CCCCC(=O)*)N1
Columns and labels:
[1] = target: T1, pep10 (cysteine pairing not given here); experiment: peptide dot matrix ELISA
T1 peptide: VTDHGSCVRACGADSYK(Biotin)

[2] = target: T2, pep34 (cysteine pairing not given here); experiment: peptide dot matrix ELISA
T2 peptide: KCKKCEGPCRKVCNGIK(Biotin)

[3] = target: T3, pep19; experiment: peptide dot matrix ELISA
T3 peptide: ACGADSYEMEEDGVRKK(Biotin)

[4] = target: T4, pep09 (cysteine pairing not given here); experiment: peptide dot matrix ELISA
T4 peptide: VVTDHGSCVRACGADSK(Biotin)

[5] = target: T5, pep30 (cysteine pairing not given here); experiment: peptide dot matrix ELISA
T5 peptide: DGVRKCKKCEGPCRKVK(Biotin)

[6] = target: T6, pep01; experiment: peptide dot matrix ELISA
T6 peptide: LEEKKGNYVVTDHGSCK(Biotin)

[7] = target: T7, pep23 (cysteine pairing not given here); experiment: peptide dot matrix ELISA
T7 peptide: DSYEMEEDGVRKCKKCK(Biotin)

[8] = target: T8, pep03; experiment: peptide dot matrix ELISA
T8 peptide: EKKGNYVVTDHGSCVRK(Biotin)

[9] = target: T9, pep32 (cysteine pairing not given here); experiment: peptide dot matrix ELISA
T9 peptide: VRKCKKCEGPCRKVCNK(Biotin)

[10] = target: T10, pep31 (cysteine pairing not given here); experiment: peptide dot matrix ELISA
T10 peptide: GVRKCKKCEGPCRKVCK(Biotin)

[11] = target: T11, pep22; experiment: peptide dot matrix ELISA
T11 peptide: ADSYEMEEDGVRKCKKK(Biotin)

[12] = target: T12, pep12 (cysteine pairing not given here); experiment: peptide dot matrix ELISA
T12 peptide: DHGSCVRACGADSYEMK(Biotin)

[13] = target: T13, pep17; experiment: peptide dot matrix ELISA
T13 peptide: VRACGADSYEMEEDGVK(Biotin)

[14] = target: T14, pep02; experiment: peptide dot matrix ELISA
T14 peptide: EEKKGNYVVTDHGSCVK(Biotin)

[15] = target: T15, pep11 (cysteine pairing not given here); experiment: peptide dot matrix ELISA
T15 peptide: TDHGSCVRACGADSYEK(Biotin)

[16] = target: T16, pep08 (cysteine pairing not given here); experiment: peptide dot matrix ELISA
T16 peptide: YVVTDHGSCVRACGADK(Biotin)

[17] = target: T17, pep25 (cysteine pairing not given here); experiment: peptide dot matrix ELISA
T17 peptide: YEMEEDGVRKCKKCEGK(Biotin)

[18] = target: T18, pep29 (cysteine pairing not given here); experiment: peptide dot matrix ELISA
T18 peptide: EDGVRKCKKCEGPCRKK(Biotin)

[19] = target: T19, pep24 (cysteine pairing not given here); experiment: peptide dot matrix ELISA
T19 peptide: SYEMEEDGVRKCKKCEK(Biotin)

[20] = target: T20, human EGFRvIII-hFc protein (human, UniProt P00533 25-645); experiment: ELISA, EGFRvIII-hFc coated; weak binding, maximum OD450 0.79 against 3.03 for wild type and 0.08 for hIgG
T20 construct: extracellular domain; also called immunogen A; hFc-tagged EGFRvIII protein; not shown: human IgG Fc fragment (hFc) of the pCpC vector
Method: The plate is incubated for 2 hours at 37° C., and then washed 3 times with the plate washing solution [PBS+0.01% (v/v) Tween20]. The plate is added with an HRP (horseradish peroxidase) labeled secondary antibody (purchased from Sigma), incubated at 37° C. for 2 hours, and then washed 3 times with the plate washing solution [PBS+0.01% (v/v) Tween20]. The plate is added with 100 μl of TMB substrate/well, incubated for 30 minutes at room temperature, and then added with 100 μl of stopping solution (1.0N HCl)/well. A450 nm value is read using an ELISA plate reader (SpectraMax 384plus, purchased from Molecular Device), and the results are shown in FIG. 11 and table 19.

[21] = target: T21, human EGFRvIII protein on the cell surface (human, UniProt P00533 25-1210); experiment: FACS on CHOk1-EGFRvIII cells
T21 construct: whole, on cells; the cell line is named under assay; also called hEGFRvIII; U87MG-hEGFRvIII
Method: (§1) The desired cells are subjected to an expanded culture to 90% confluence in a T-75 cell culture flask; the medium is sucked out, and the cells are washed twice with a HBSS buffer (Hanks Balanced Salt Solution) (purchased from Invitrogen), and then treated with an enzyme-free cell dissociation solution (Versene solution: purchased from Life Technology) and collected. The cells are washed twice with the HBSS buffer and are counted, and then the cells are diluted with the HBSS buffer to 2×10⁶ cells/ml, added with 1% goat serum blocking solution, with the percentage being the mass percentage, and incubated on ice for 30 minutes, and then centrifugally washed twice with the HBSS buffer. The collected cells are suspended to 2×10⁶ cells/mL with an FACS buffer (HBSS+1% BSA, with the percentage being the mass percentage), added to a 96-well FACS reaction plate at 100 μL/well, then added with 100 μL/well of the purified EGFRvIII antibody (samples to be tested) obtained in example 2, and incubated on ice for 2 hours. The plate is centrifugally washed twice with the FACS buffer, added with 100 μL/well of a fluorescence (Alexa 488) labeled secondary antibody (purchased from Invitrogen), and then incubated on ice for 1 hour. The plate is centrifugally washed 3 times with the FACS buffer, added with 100 μL/well of a fixing solution [4% (v/v) paraformaldehyde] for suspending the cells, and centrifugally washed twice with the FACS buffer after 10 minutes. The cells are suspended in 100 μL of the FACS buffer, and the results are detected and analyzed by FACS (FACS Calibur, purchased from BD). Data analysis is performed by using the software (CellQuest) to obtain the mean fluorescence intensity (MFI) of the cells. Data is further analyzed by using the software (GraphPad Prism5) to perform data fitting and calculate EC50. […] A431 cells (human epidermal cell cancer cell lines) have a large amount of wild-type EGFR protein expressed on the surface thereof.

[22] = target: T22, human wild-type EGFR protein on the cell surface (human, UniProt P00533 25-1210); experiment: FACS on CHOk1-EGFR cells
T22 construct: whole, on cells; Endogenous on A431, HEB, U87MG cells and normal human primary hepatocytes; transfected on CHOk1-EGFR cells; The cell is named under assay; also called A431; HEB
Method: as §1, with “The” for “The desired cells are subjected to an expanded culture to 90% confluence in a T-75 cell culture flask; the medium is sucked out, and the cells are washed twice with a HBSS buffer (Hanks Balanced Salt Solution) (purchased from Invitrogen), and then treated with an enzyme-free cell dissociation solution (Versene solution: purchased from Life Technology) and collected. The”, “thereof. […] U87MG cells (human glioma cell lines) have a small amount of wild-type EGFR protein expressed on the surface thereof, while HEB cells (human glioma cell lines) have a high level of wild-type EGFR protein expression on the surface thereof.” for “thereof.”

[23] = target: T20, human EGFRvIII-hFc protein; experiment: ELISA, EGFRvIII-hFc coated
Method: The purified immunogen A (EGFRvIII-hFc) obtained in example 1 (for the preparation method, see step (I) in example 1) is diluted with PBS to a final concentration of 1.0 μg/mL, and then added to a 96-well ELISA plate at 100 μl/well. The plate is sealed with a plastic film and incubated at 4° C. overnight. The next day, the plate is washed twice with a plate washing solution [PBS+0.01% (v/v) Tween20], and added with a blocking solution [PBS+0.01% (v/v) Tween20+1% (w/w) BSA] for blocking 2 hours at room temperature. […] The plate is incubated for 2 hours at 37° C., and then washed 3 times with the plate washing solution [PBS+0.01% (v/v) Tween20]. The plate is added with an HRP (horseradish peroxidase) labeled secondary antibody (purchased from Sigma), incubated at 37° C. for 2 hours, and then washed 3 times with the plate washing solution [PBS+0.01% (v/v) Tween20]. The plate is added with 100 μl of TMB substrate/well, incubated for 30 minutes at room temperature, and then added with 100 μl of stopping solution (1.0N HCl)/well. A450 nm value is read using an ELISA plate reader (SpectraMax 384plus, purchased from Molecular Device), and the results are shown in FIG. 11 and table 19.

B1: Chimeric antibody 64F1 (antibody, V domains shown)
VH: QVQLQQSGAELARPGASVKMSCKASGYTFSSYTMHWAKQRPGQGLEWIGYINPSSGYTKYNQKFKDKATLTADKSSSTAYMQLSSLTSEDSIVYYCARGGGRGFAYWGQGTLVTVSA
VL: QIVLTQSPAIMSASPGERVTMTCSASSSVSYMYWYQQKPGSSPRLLIYDTSNLASGVPVRFSGSGSGTSYSLTISRVEAEDAATYYCQQWSSYSLTFGAGTKLELK
notes: also called 64F1F8 chimeric
- ELISA signal [1]: 0.05
- ELISA signal [2]: 0.07
- ELISA signal [3]: 0.05
- ELISA signal [4]: 0.05
- ELISA signal [5]: 0.06
- ELISA signal [6]: 0.05
- ELISA signal [7]: 0.07
- ELISA signal [8]: 0.05
- ELISA signal [9]: 0.06
- ELISA signal [10]: 0.06
- ELISA signal [11]: 0.08
- ELISA signal [12]: 0.05
- ELISA signal [13]: 0.05
- ELISA signal [14]: 0.05
- ELISA signal [15]: 0.05
- ELISA signal [16]: 0.05
- ELISA signal [17]: 0.06
- ELISA signal [18]: 0.06
- ELISA signal [19]: 0.06

B2: c75G7C6-4 (antibody, human IgG1, V domains shown)
VH: EVQLQQSGPELVKPGASVKIPCKASGYTFTDYNMDWVKQSHGKSLEWIGDINPNNGDTIYNQKFKGKATLTVDKSSSTAYMELRSLTSEDTAVYYCARGDYSGYYPVYYAMDYWGQGTSVTVSS
VL: ENVLTQSPAIMSASPGEKVTMTCRASSSVSSSYLHWYQQKSGASPKLWIFSTSNLAAGVPARFSGSGSGTSYSLTVSSVEAEDAATYYCQQYSGYPLTFGAGTKLELK
notes: Chimeric 75G7C6 with DG of heavy chain CDR3 mutated to SG; Human IgG1/kappa; also called mutant chimeric antibody DG/SG
- EC50 [20]: 7.94 nM
- EC50 [21]: 24 nM
- Maximum mean fluorescence intensity [21]: 52600 MFI
- Maximum mean fluorescence intensity [22]: 8970 MFI
- Maximum OD450 value [23]: 0.79 OD450
